Source: publication PMC7885266

Target: 3TBP-CTPR6-foldon
Test: co-sedimentation; co-precipitation assay: 10 μM hTNKS2 ARC1–3 mixed with an equal volume of CTPR protein (fixed or increasing concentrations) in 50 mM Tris-HCl, 150 mM NaCl, 0.5 mM TCEP, pH 7.3; 1 h at room temperature, 20 000g 30 min; supernatant and pellet on SDS-PAGE, band densities give the stoichiometry in the pellet

stoichiometry N: 2
B1: Tankyrase-2 Ankyrin Repeat Clusters 1-3 (residues 2-485) (domain or fragment)
chain: SGRRCAGGGAACASAAAEAVEPAARELFEACRNGDVERVKRLVTPEKVNSRDTAGRKSTPLHFAAGFGRKDVVEYLLQNGANVQARDDGGLIPLHNACSFGHAEVVNLLLRHGADPNARDNWNYTPLHEAAIKGKIDVCIVLLQHGAEPTIRNTDGRTALDLADPSAKAVLTGEYKKDELLESARSGNEEKMMALLTPLNVNCHASDGRKSTPLHLAAGYNRVKIVQLLLQHGADVHAKDKGDLVPLHNACSYGHYEVTELLVKHGACVNAMDLWQFTPLHEAASKNRVEVCSLLLSYGADPTLLNCHNKSAIDLAPTPQLKERLAYEFKGHSLLQAAREADVTRIKKHLSLEMVNFKHPQTHETALHCAAASPYPKRKQICELLLRKGANINEKTKEFLTPLHVASEKAHNDVVEVVVKHEAKVNALDNLGQTSLHRAAYCGHLQTCRLLLSYGCDPNIISLQGFTALQMGNENVQQLLQEGI
